Data published in patent US20130336893A1 (Sanofi, published 2013).
*1 amine or outer side, *2 acyl side, *3 side chain or, on linkers, in order; H or OH if unused. Where no end group is shown, it is not given here. Side-chain parts run from the residue outwards. [ ]: non-standard residue; d: D form. The star is where a group is joined. γGlu = O=C(O)[C@H](CCC(=O)[*:2])N[*:1]; Palmitoyl = CCCCCCCCCCCCCCCC(=O)*; Aib = CC(C)(N)C(=O)O

B1: SEQ ID NO: (108) (peptide)
peptide: H[dS]QGTFTSDLSKQMEEEAAQDFIEWLKAGGPSSGAPPPSK([γGlu-Palmitoyl])-NH2
modifications: N-terminus assumed
SMILES: CCCCCCCCCCCCCCCC(=O)N[C@@H](CCC(=O)NCCCC[C@H](NC(=O)[C@H](CO)NC(=O)[C@@H]1CCCN1C(=O)[C@@H]1CCCN1C(=O)[C@@H]1CCCN1C(=O)[C@H](C)NC(=O)CNC(=O)[C@H](CO)NC(=O)[C@H](CO)NC(=O)[C@@H]1CCCN1C(=O)CNC(=O)CNC(=O)[C@H](C)NC(=O)[C@H](CCCCN)NC(=O)[C@H](CC(C)C)NC(=O)[C@H](Cc1c[nH]c2ccccc12)NC(=O)[C@H](CCC(=O)O)NC(=O)[C@@H](NC(=O)[C@H](Cc1ccccc1)NC(=O)[C@H](CC(=O)O)NC(=O)[C@H](CCC(N)=O)NC(=O)[C@H](C)NC(=O)[C@H](C)NC(=O)[C@H](CCC(=O)O)NC(=O)[C@H](CCC(=O)O)NC(=O)[C@H](CCC(=O)O)NC(=O)[C@H](CCSC)NC(=O)[C@H](CCC(N)=O)NC(=O)[C@H](CCCCN)NC(=O)[C@H](CO)NC(=O)[C@H](CC(C)C)NC(=O)[C@H](CC(=O)O)NC(=O)[C@H](CO)NC(=O)[C@@H](NC(=O)[C@H](Cc1ccccc1)NC(=O)[C@@H](NC(=O)CNC(=O)[C@H](CCC(N)=O)NC(=O)[C@@H](CO)NC(=O)[C@@H](N)Cc1c[nH]cn1)[C@@H](C)O)[C@@H](C)O)[C@@H](C)CC)C(N)=O)C(=O)O
B2: SEQ ID NO: (110) (peptide)
peptide: H[dS]QGTFTSDLSKQMEEEAAKDFIEWLKAGGPSSGAPPPSK([γGlu-Palmitoyl])-NH2
modifications: N-terminus assumed
SMILES: CCCCCCCCCCCCCCCC(=O)N[C@@H](CCC(=O)NCCCC[C@H](NC(=O)[C@H](CO)NC(=O)[C@@H]1CCCN1C(=O)[C@@H]1CCCN1C(=O)[C@@H]1CCCN1C(=O)[C@H](C)NC(=O)CNC(=O)[C@H](CO)NC(=O)[C@H](CO)NC(=O)[C@@H]1CCCN1C(=O)CNC(=O)CNC(=O)[C@H](C)NC(=O)[C@H](CCCCN)NC(=O)[C@H](CC(C)C)NC(=O)[C@H](Cc1c[nH]c2ccccc12)NC(=O)[C@H](CCC(=O)O)NC(=O)[C@@H](NC(=O)[C@H](Cc1ccccc1)NC(=O)[C@H](CC(=O)O)NC(=O)[C@H](CCCCN)NC(=O)[C@H](C)NC(=O)[C@H](C)NC(=O)[C@H](CCC(=O)O)NC(=O)[C@H](CCC(=O)O)NC(=O)[C@H](CCC(=O)O)NC(=O)[C@H](CCSC)NC(=O)[C@H](CCC(N)=O)NC(=O)[C@H](CCCCN)NC(=O)[C@H](CO)NC(=O)[C@H](CC(C)C)NC(=O)[C@H](CC(=O)O)NC(=O)[C@H](CO)NC(=O)[C@@H](NC(=O)[C@H](Cc1ccccc1)NC(=O)[C@@H](NC(=O)CNC(=O)[C@H](CCC(N)=O)NC(=O)[C@@H](CO)NC(=O)[C@@H](N)Cc1c[nH]cn1)[C@@H](C)O)[C@@H](C)O)[C@@H](C)CC)C(N)=O)C(=O)O
B3: SEQ ID NO: (114) (peptide)
peptide: H[dS]QGTFTSDLSKQMESEAAQLFIEWLKAGGPSSGAPPPSK([γGlu-Palmitoyl])-NH2
modifications: N-terminus assumed
SMILES: CCCCCCCCCCCCCCCC(=O)N[C@@H](CCC(=O)NCCCC[C@H](NC(=O)[C@H](CO)NC(=O)[C@@H]1CCCN1C(=O)[C@@H]1CCCN1C(=O)[C@@H]1CCCN1C(=O)[C@H](C)NC(=O)CNC(=O)[C@H](CO)NC(=O)[C@H](CO)NC(=O)[C@@H]1CCCN1C(=O)CNC(=O)CNC(=O)[C@H](C)NC(=O)[C@H](CCCCN)NC(=O)[C@H](CC(C)C)NC(=O)[C@H](Cc1c[nH]c2ccccc12)NC(=O)[C@H](CCC(=O)O)NC(=O)[C@@H](NC(=O)[C@H](Cc1ccccc1)NC(=O)[C@H](CC(C)C)NC(=O)[C@H](CCC(N)=O)NC(=O)[C@H](C)NC(=O)[C@H](C)NC(=O)[C@H](CCC(=O)O)NC(=O)[C@H](CO)NC(=O)[C@H](CCC(=O)O)NC(=O)[C@H](CCSC)NC(=O)[C@H](CCC(N)=O)NC(=O)[C@H](CCCCN)NC(=O)[C@H](CO)NC(=O)[C@H](CC(C)C)NC(=O)[C@H](CC(=O)O)NC(=O)[C@H](CO)NC(=O)[C@@H](NC(=O)[C@H](Cc1ccccc1)NC(=O)[C@@H](NC(=O)CNC(=O)[C@H](CCC(N)=O)NC(=O)[C@@H](CO)NC(=O)[C@@H](N)Cc1c[nH]cn1)[C@@H](C)O)[C@@H](C)O)[C@@H](C)CC)C(N)=O)C(=O)O
B4: SEQ ID NO: (113) (peptide)
peptide: H[dS]QGTFTSDLSKQMEEEAAKLFIEWLKAGGPSSGAPPPSK([γGlu-Palmitoyl])-NH2
modifications: N-terminus assumed
SMILES: CCCCCCCCCCCCCCCC(=O)N[C@@H](CCC(=O)NCCCC[C@H](NC(=O)[C@H](CO)NC(=O)[C@@H]1CCCN1C(=O)[C@@H]1CCCN1C(=O)[C@@H]1CCCN1C(=O)[C@H](C)NC(=O)CNC(=O)[C@H](CO)NC(=O)[C@H](CO)NC(=O)[C@@H]1CCCN1C(=O)CNC(=O)CNC(=O)[C@H](C)NC(=O)[C@H](CCCCN)NC(=O)[C@H](CC(C)C)NC(=O)[C@H](Cc1c[nH]c2ccccc12)NC(=O)[C@H](CCC(=O)O)NC(=O)[C@@H](NC(=O)[C@H](Cc1ccccc1)NC(=O)[C@H](CC(C)C)NC(=O)[C@H](CCCCN)NC(=O)[C@H](C)NC(=O)[C@H](C)NC(=O)[C@H](CCC(=O)O)NC(=O)[C@H](CCC(=O)O)NC(=O)[C@H](CCC(=O)O)NC(=O)[C@H](CCSC)NC(=O)[C@H](CCC(N)=O)NC(=O)[C@H](CCCCN)NC(=O)[C@H](CO)NC(=O)[C@H](CC(C)C)NC(=O)[C@H](CC(=O)O)NC(=O)[C@H](CO)NC(=O)[C@@H](NC(=O)[C@H](Cc1ccccc1)NC(=O)[C@@H](NC(=O)CNC(=O)[C@H](CCC(N)=O)NC(=O)[C@@H](CO)NC(=O)[C@@H](N)Cc1c[nH]cn1)[C@@H](C)O)[C@@H](C)O)[C@@H](C)CC)C(N)=O)C(=O)O
B5: SEQ ID NO: (111) (peptide)
peptide: H[dS]QGTFTSDLSKQMES[Aib]AAQDFIEWLKAGGPSSGAPPPSK([γGlu-Palmitoyl])-NH2
modifications: N-terminus assumed
SMILES: CCCCCCCCCCCCCCCC(=O)N[C@@H](CCC(=O)NCCCC[C@H](NC(=O)[C@H](CO)NC(=O)[C@@H]1CCCN1C(=O)[C@@H]1CCCN1C(=O)[C@@H]1CCCN1C(=O)[C@H](C)NC(=O)CNC(=O)[C@H](CO)NC(=O)[C@H](CO)NC(=O)[C@@H]1CCCN1C(=O)CNC(=O)CNC(=O)[C@H](C)NC(=O)[C@H](CCCCN)NC(=O)[C@H](CC(C)C)NC(=O)[C@H](Cc1c[nH]c2ccccc12)NC(=O)[C@H](CCC(=O)O)NC(=O)[C@@H](NC(=O)[C@H](Cc1ccccc1)NC(=O)[C@H](CC(=O)O)NC(=O)[C@H](CCC(N)=O)NC(=O)[C@H](C)NC(=O)[C@H](C)NC(=O)C(C)(C)NC(=O)[C@H](CO)NC(=O)[C@H](CCC(=O)O)NC(=O)[C@H](CCSC)NC(=O)[C@H](CCC(N)=O)NC(=O)[C@H](CCCCN)NC(=O)[C@H](CO)NC(=O)[C@H](CC(C)C)NC(=O)[C@H](CC(=O)O)NC(=O)[C@H](CO)NC(=O)[C@@H](NC(=O)[C@H](Cc1ccccc1)NC(=O)[C@@H](NC(=O)CNC(=O)[C@H](CCC(N)=O)NC(=O)[C@@H](CO)NC(=O)[C@@H](N)Cc1c[nH]cn1)[C@@H](C)O)[C@@H](C)O)[C@@H](C)CC)C(N)=O)C(=O)O
B6: SEQ ID NO: (112) (peptide)
peptide: H[dS]QGTFTSDLSKQMES[Aib]AAQLFIEWLKAGGPSSGAPPPSK([γGlu-Palmitoyl])-NH2
modifications: N-terminus assumed
SMILES: CCCCCCCCCCCCCCCC(=O)N[C@@H](CCC(=O)NCCCC[C@H](NC(=O)[C@H](CO)NC(=O)[C@@H]1CCCN1C(=O)[C@@H]1CCCN1C(=O)[C@@H]1CCCN1C(=O)[C@H](C)NC(=O)CNC(=O)[C@H](CO)NC(=O)[C@H](CO)NC(=O)[C@@H]1CCCN1C(=O)CNC(=O)CNC(=O)[C@H](C)NC(=O)[C@H](CCCCN)NC(=O)[C@H](CC(C)C)NC(=O)[C@H](Cc1c[nH]c2ccccc12)NC(=O)[C@H](CCC(=O)O)NC(=O)[C@@H](NC(=O)[C@H](Cc1ccccc1)NC(=O)[C@H](CC(C)C)NC(=O)[C@H](CCC(N)=O)NC(=O)[C@H](C)NC(=O)[C@H](C)NC(=O)C(C)(C)NC(=O)[C@H](CO)NC(=O)[C@H](CCC(=O)O)NC(=O)[C@H](CCSC)NC(=O)[C@H](CCC(N)=O)NC(=O)[C@H](CCCCN)NC(=O)[C@H](CO)NC(=O)[C@H](CC(C)C)NC(=O)[C@H](CC(=O)O)NC(=O)[C@H](CO)NC(=O)[C@@H](NC(=O)[C@H](Cc1ccccc1)NC(=O)[C@@H](NC(=O)CNC(=O)[C@H](CCC(N)=O)NC(=O)[C@@H](CO)NC(=O)[C@@H](N)Cc1c[nH]cn1)[C@@H](C)O)[C@@H](C)O)[C@@H](C)CC)C(N)=O)C(=O)O
B7: SEQ ID NO: (109) (peptide)
peptide: H[dS]QGTFTSDLSKQMESEAAQDFIEWLKAGGPSSGAPPPSK([γGlu-Palmitoyl])-NH2
modifications: N-terminus assumed
SMILES: CCCCCCCCCCCCCCCC(=O)N[C@@H](CCC(=O)NCCCC[C@H](NC(=O)[C@H](CO)NC(=O)[C@@H]1CCCN1C(=O)[C@@H]1CCCN1C(=O)[C@@H]1CCCN1C(=O)[C@H](C)NC(=O)CNC(=O)[C@H](CO)NC(=O)[C@H](CO)NC(=O)[C@@H]1CCCN1C(=O)CNC(=O)CNC(=O)[C@H](C)NC(=O)[C@H](CCCCN)NC(=O)[C@H](CC(C)C)NC(=O)[C@H](Cc1c[nH]c2ccccc12)NC(=O)[C@H](CCC(=O)O)NC(=O)[C@@H](NC(=O)[C@H](Cc1ccccc1)NC(=O)[C@H](CC(=O)O)NC(=O)[C@H](CCC(N)=O)NC(=O)[C@H](C)NC(=O)[C@H](C)NC(=O)[C@H](CCC(=O)O)NC(=O)[C@H](CO)NC(=O)[C@H](CCC(=O)O)NC(=O)[C@H](CCSC)NC(=O)[C@H](CCC(N)=O)NC(=O)[C@H](CCCCN)NC(=O)[C@H](CO)NC(=O)[C@H](CC(C)C)NC(=O)[C@H](CC(=O)O)NC(=O)[C@H](CO)NC(=O)[C@@H](NC(=O)[C@H](Cc1ccccc1)NC(=O)[C@@H](NC(=O)CNC(=O)[C@H](CCC(N)=O)NC(=O)[C@@H](CO)NC(=O)[C@@H](N)Cc1c[nH]cn1)[C@@H](C)O)[C@@H](C)O)[C@@H](C)CC)C(N)=O)C(=O)O

Legend:
human GLP-1 receptor = human GLP-1 receptor (human, UniProt P43220 24-463); assay: cell-based or functional assay
human glucagon receptor = human glucagon receptor (human, UniProt P47871 26-477); assay: cell-based or functional assay
human glucagon receptor, sequence (P47871 26-477): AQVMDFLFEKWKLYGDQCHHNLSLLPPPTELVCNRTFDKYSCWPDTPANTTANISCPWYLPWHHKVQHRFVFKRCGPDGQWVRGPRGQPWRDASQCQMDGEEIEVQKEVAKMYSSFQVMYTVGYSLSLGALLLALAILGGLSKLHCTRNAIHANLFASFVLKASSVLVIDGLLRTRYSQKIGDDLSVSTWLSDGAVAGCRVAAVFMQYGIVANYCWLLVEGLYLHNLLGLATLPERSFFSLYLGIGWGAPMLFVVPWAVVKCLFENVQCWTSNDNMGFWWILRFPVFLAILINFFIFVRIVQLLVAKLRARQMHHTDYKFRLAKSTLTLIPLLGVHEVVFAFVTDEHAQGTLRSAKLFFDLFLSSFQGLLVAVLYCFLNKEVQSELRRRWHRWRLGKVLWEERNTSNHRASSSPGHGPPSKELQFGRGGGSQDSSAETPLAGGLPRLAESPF

Binder | EC50 hGLP-1R (cAMP formation) (human GLP-1 receptor) | EC50 hGlucagonR (cAMP formation) (human glucagon receptor)
B1 | 2.1 pM | 541 pM
B2 | 2.9 pM | 323 pM
B3 | 3.1 pM | 295 pM
B4 | 2 pM | 311 pM
B5 | 4.1 pM | 206 pM
B6 | 9.7 pM | 876 pM
B7 | 3.3 pM | 277 pM
HSQGTFTSDLSKQMEEERAKDFIEWLKNGGPSSGAPPPS-NH2 [SEQ ID NO: (17)] | 24.1 pM | 3360 pM
